Measurements published in paper PMC2588524 (Nucleic Acids Research, 2008).

Assays:
[1] = molecular target: T1, C-terminal domain of mouse Dnmt3a (residues 608-908) (mouse, UniProt O88508 608-908); assay: AUC
[2] = molecular target: T1, C-terminal domain of mouse Dnmt3a …; assay: co-purification

T1 sequence (O88508 608-908): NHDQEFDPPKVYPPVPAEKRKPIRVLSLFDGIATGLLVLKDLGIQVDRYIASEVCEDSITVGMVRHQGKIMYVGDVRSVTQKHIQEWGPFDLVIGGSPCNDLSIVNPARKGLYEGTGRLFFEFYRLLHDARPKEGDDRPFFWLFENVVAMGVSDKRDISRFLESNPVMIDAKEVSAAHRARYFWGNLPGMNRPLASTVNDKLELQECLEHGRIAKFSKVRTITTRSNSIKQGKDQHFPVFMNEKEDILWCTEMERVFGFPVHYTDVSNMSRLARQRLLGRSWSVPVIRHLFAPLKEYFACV

stoichiometry N [1]: 1 2:2 (Dnmt3a-C:Dnmt3L-C)
stoichiometry N [2]: 1
B1: C-terminal domain of mouse Dnmt3L (residues 208-421) (domain or fragment, UniProt Q9CWR8 208-421, looked up)
chain: GPMEIYKTVSAWKRQPVRVLSLFRNIDKVLKSLGFLESGSGSGGGTLKYVEDVTNVVRRDVEKWGPFDLVYGSTQPLGSSCDRCPGWYMFQFHRILQYALPRQESQRPFFWIFMDNLLLTEDDQETTTRFLQTEAVTLQDVRGRDYQNAMRVWSNIPGLKSKHAPLTPKEEEYLQAQVRSRSKLDAPKVDLLVKNCLLPLREYFKYFSQNSLPL
